Measurements: patent US20150086555A1
Like-named read-outs stand apart in the source and are kept apart here.

Experiments:
Conditions in all cases: remark: other sources report otherwise
[1] = target: recombinant soluble homotrimeric HA of A/Hong Kong/2108/03 (H9N2) (Influenza A virus A/HK/2108/2003(H9N2)); experiment: trimeric HA microarray, transfection supernatant set 4
[2] = target: T1, recombinant soluble homotrimeric HA of A/Indonesia/5/05 (H5N1) (Influenza A virus A/Indonesia/5/2005(H5N1)); experiment: trimeric HA microarray, transfection supernatant set 1
[3] = target: T2, recombinant soluble homotrimeric HA of A/chicken/Vietnam/NCVD-016/08 (H5N1) (Influenza A virus A/chicken/Vietnam/NCVD-016/2008(H5N1)); experiment: as above
[4] = target: T3, recombinant soluble homotrimeric HA of A/Anhui/1/05 (H5N1) (Influenza A virus A/Anhui/1/2005(H5N1)); experiment: as above
[5] = target: T4, recombinant soluble homotrimeric HA of A/Egypt/3300-NAMRU3/08 (H5N1) (Influenza A virus A/Egypt/3300-NAMRU3/2008(H5N1)); experiment: as above
[6] = target: T5, recombinant soluble homotrimeric HA of A/duck/Yangzhou/02/05 (H8N4) (Influenza A virus A/duck/Yangzhou/02/2005(H8N4)); experiment: trimeric HA microarray, transfection supernatant set 3
[7] = target: T6, recombinant soluble homotrimeric HA of A/swine/Ontario/01911-2/99 (H4N6) (Influenza A virus A/Swine/Ontario/01911-2/99 (H4N6)); experiment: as above
[8] = target: T7, recombinant soluble homotrimeric HA of A/Wisconsin/67/05 (H3N2) (Influenza A virus A/Wisconsin/67/2005(H3N2)); experiment: as above
[9] = target: T5, recombinant soluble homotrimeric HA of …; experiment: HA microarray, control antibody
[10] = target: T1, recombinant soluble homotrimeric HA of …; experiment: HA microarray, control antibody
[11] = target: T6, recombinant soluble homotrimeric HA of …; experiment: HA microarray, control antibody
[12] = target: T2, recombinant soluble homotrimeric HA of …; experiment: HA microarray, control antibody
[13] = target: T7, recombinant soluble homotrimeric HA of …; experiment: HA microarray, control antibody
[14] = target: recombinant soluble homotrimeric HA of A/Vietnam/1203/04 (H5N1) (Influenza A virus A/VietNam/1203/2004(H5N1)); experiment: HA microarray, control antibody
[15] = target: T3, recombinant soluble homotrimeric HA of …; experiment: HA microarray, control antibody
[16] = target: recombinant soluble homotrimeric HA of A/California/4/09 (H1N1) (Influenza A virus A/California/04/2009(H1N1)); experiment: HA microarray, control antibody
[17] = target: T8, recombinant soluble homotrimeric HA of A/Solomon Islands/3/06 (H1N1) (Influenza A virus A/Solomon Islands/3/2006(H1N1)); experiment: HA microarray, control antibody
[18] = target: T9, recombinant soluble homotrimeric HA of A/Japan/305/57 (H2N2) (Influenza A virus A/Japan/305/1957(H2N2)); experiment: HA microarray, control antibody
[19] = target: T4, recombinant soluble homotrimeric HA of …; experiment: HA microarray, control antibody
[20] = target: recombinant soluble homotrimeric HA of A/Netherlands/219/03 (H7N7) (Influenza A virus A/Netherlands/219/03(H7N7)); experiment: HA microarray, control antibody
[21] = target: T1, recombinant soluble homotrimeric HA of …
[22] = target: T2, recombinant soluble homotrimeric HA of …
[23] = target: T8, recombinant soluble homotrimeric HA of …
[24] = target: T9, recombinant soluble homotrimeric HA of …
[25] = target: recombinant soluble homotrimeric HA of A/Hong Kong/156/97 (H5N1) (Influenza A virus A/Hong Kong/156/97 (H5N1))
[26] = target: T10, recombinant soluble homotrimeric HA of A/Hong Kong/1073/99 (H9N2) (Influenza A virus A/Hong Kong/1073/99 (H9N2))
[27] = target: recombinant soluble homotrimeric HA of A/northern shoveler/California/HKWF115/07 (H6) (Influenza A virus A/northern shoveler/California/HKWF115/2007(H6N1)); experiment: trimeric HA microarray, transfection supernatant set 3
[28] = target: T10, recombinant soluble homotrimeric HA of …; experiment: as above

Row | Binder | Trimeric HA Binding: RLU [1] | Trimeric HA Binding: RLU [2] | Trimeric HA Binding: RLU [3] | Trimeric HA Binding: RLU [4] | Trimeric HA Binding: RLU [5] | Trimeric HA Binding: RLU [6] | Trimeric HA Binding: RLU [7] | Trimeric HA Binding: RLU [8] | Trimeric HA Binding: RLU [27] | Trimeric HA Binding: RLU [28] | further results
1 | TCN-534 (5249_B02) (antibody, V domains shown) VH: QVQLVQSGAEVKKPGSSVKVSCRESGGTFNGYTITWVRQAPGQGLEWMGGIIPMMGTVNYAQKLQGRVTITTDYFTKTAYMDLNNLRSEDTAMYYCVKIRYTGQQLLWGQGTLVTVSS VL: DIQMTQSPSTLSASIGDRVTITCRASQSIASWLAWYQQKPGKAPKLLIYEAVNLESGVPSRFSGSGSGTDFTLTISSLQPDDFATYFCQHYGTISQTFGGGTKVEIK | 27 RLU | – | – | – | – | – | – | – | – | – | –
2 | TCN-504 (3251_K17) (antibody, V domains shown) VH: QVQLQESGPGLVKPSETLSLTCAVSGVSISNIDFYWGWIRQPPGKGLEWIGNIYYTGITFYNPSLSSRVAISIDTSKNQFSLTLTSVTAADTAMYYCARHYGDSEAINDAFDIWGQGTMLTVSS VL: EIVMTQSPATLSVSPGERATLSCRASQSVGNSLAWYQQRPGQAPRLLIYGASTRATGIPPRFSGSGSGTEFTLTISSLQTEDFAVYYCQQYINWRPLSFGGGTKVEIK | – | 16600 RLU | 27800 RLU | 29000 RLU | 16100 RLU | 19600 RLU | 34500 RLU | 21400 RLU | – | – | Trimeric HA Binding: RLU [9]: 14100 RLU; Trimeric HA Binding: RLU [10]: 43300 RLU; Trimeric HA Binding: RLU [11]: 14700 RLU; Trimeric HA Binding: RLU [12]: 38500 RLU; Trimeric HA Binding: RLU [13]: 40500 RLU; Trimeric HA Binding: RLU [14]: 196 RLU; Trimeric HA Binding: RLU [15]: 26200 RLU; Trimeric HA Binding: RLU [16]: 3330 RLU; Trimeric HA Binding: RLU [17]: 24100 RLU; Trimeric HA Binding: RLU [18]: 4090 RLU; Trimeric HA Binding: RLU [19]: 44400 RLU; Trimeric HA Binding: RLU [20]: 47200 RLU
3 | TCN-563 (5237_B21) (antibody, V domains shown) VH: QVQLAQSGAEVKRPGSSVKVSCTASGGIFRKNAISWVRQAPGQGLEWMGGIIAVFNTANYAQKFQGRVKITADESGNTAYMELSSLRSDDTAVYYCASHPKYFYGSGSYPDFWGQGTLVTVSS VL: QSALTQPRSVSGSPGQSVTISCTGSSSDVGASNSVSWYQQHPGKAPKLVIYDVTERPSGVPHRFSGSKSGNTASLTVSGLQPEDEADYFCCAYGGKYLVVFGGGTKVTVL | – | – | – | – | – | – | – | – | – | – | Trimeric HA Binding: RLU [21]: 23200 RLU; Trimeric HA Binding: RLU [22]: 8580 RLU; Trimeric HA Binding: RLU [23]: 21000 RLU; Trimeric HA Binding: RLU [24]: 12400 RLU; Trimeric HA Binding: RLU [25]: 17700 RLU; Trimeric HA Binding: RLU [26]: 4600 RLU
4 | TCN-523 (5248_A17) (antibody, V domains shown) VH: QVQLVQSGAEVKKPGSSVKVSCKASGGSFSNYAFSWVRQAPGQGLEWMGGTIPLLGTTNYAQKFQGRVTISADQFTSTAYMELGSLRSEDTAVYYCTRRKMTTAFDSWGQGTLVTVSS VL: QPVLTQPPSASASLGASVTLTCTLSSAYSNYKVDWYQQRPGKGPRFVMRVGTGGIVGSKGDGIPDRFSVLGSGLNRYLTIKNIQEEDESDYHCGADHGSGSNFVSPYVFGGGTKLTVL | 38 RLU | 18500 RLU | 10800 RLU | 60 RLU | 25500 RLU | – | – | – | 29400 RLU | 24200 RLU | –
5 | TCN-530 (5248_H10a) (antibody, V domains shown) VH: QVQLVQSGAEVRKPGSSVKVSCKASGGPFMSYAIGWVRQAPGQGLEWMGGINPVFGRPHYAQKFQGRVTIATDDSTKTSYMELSSLTSEDTGMYYCASRYSRSSPGTFESWGQGTLVTVSS VL: EIVMTQFPATLSVSPGERVTLSCRASQSVSNNLAWYQQKPGQPPRLLIYDASTRATGVPAKFSGTGSGTEFTLSISSLQSEDFAVYYCQQYHNWPPSYSFGLGTKLEIK | – | – | – | – | – | 227 RLU | 123 RLU | 3050 RLU | 23500 RLU | 10200 RLU | –
